Assay results taken from the supplement of paper PMC9112550, “Optimization of the antimicrobial peptide Bac7 by deep mutational scanning” (BMC Biology, 2022).

What follows are sequences tested on Escherichia coli TOP10 (assay: shrunken log2 fold change of peptide-encoding DNA abundance (4.5 h post-induction vs induction); higher = less antimicrobial activity (less host growth inhibition)). Conditions: time post-induction: 4.5 h; library: site-saturation at positions 5, 18, 19, 20.
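Note: peptides expressed intracellularly from a pBAD plasmid library in pooled LB shake-flask culture, induced with 0.3% L-arabinose, DNA abundance read by NGS, three biological replicates, DESeq2 with apeglm shrinkage.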

Sequence	shrunken log2 fold change
RRIRARPPRLPRPRPRPMINPRP	-0.0176
RRIRARPPRLPRPRPRPMKDPRP	0.0565
RRIRARPPRLPRPRPRPMLIPRP	0.0528
RRIRARPPRLPRPRPRPMLSPRP	0.133
RRIRARPPRLPRPRPRPMLTPRP	0.466
RRIRARPPRLPRPRPRPMMQPRP	0.185
RRIRARPPRLPRPRPRPMNYPRP	-0.182
RRIRARPPRLPRPRPRPMPIPRP	0.708
RRIRARPPRLPRPRPRPMPPPRP	0.3
RRIRARPPRLPRPRPRPMPWPRP	0.483
RRIRARPPRLPRPRPRPMPYPRP	-0.105
RRIRARPPRLPRPRPRPMQAPRP	-0.00917
RRIRARPPRLPRPRPRPMQGPRP	0.601
RRIRARPPRLPRPRPRPMQPPRP	0.369
RRIRARPPRLPRPRPRPMQYPRP	0.00958
RRIRARPPRLPRPRPRPMRDPRP	1.04
RRIRARPPRLPRPRPRPMRSPRP	0.0669
RRIRARPPRLPRPRPRPMVCPRP	0.396
RRIRARPPRLPRPRPRPMVEPRP	0.0234
RRIRARPPRLPRPRPRPMWRPRP	0.248
RRIRARPPRLPRPRPRPMYIPRP	-0.345
RRIRARPPRLPRPRPRPMYQPRP	-0.21
RRIRARPPRLPRPRPRPNCHPRP	-0.0678
RRIRARPPRLPRPRPRPNFCPRP	0.24
RRIRARPPRLPRPRPRPNFKPRP	0.0298

Sequence	shrunken log2 fold change
RRIRARPPRLPRPRPRPNFPPRP	-0.0362
RRIRARPPRLPRPRPRPNFSPRP	-0.0677
RRIRARPPRLPRPRPRPNHCPRP	0.956
RRIRARPPRLPRPRPRPNHYPRP	-0.456
RRIRARPPRLPRPRPRPNIRPRP	-0.289
RRIRARPPRLPRPRPRPNLCPRP	0.0317
RRIRARPPRLPRPRPRPNMCPRP	-0.339
RRIRARPPRLPRPRPRPNMRPRP	0.25
RRIRARPPRLPRPRPRPNNCPRP	-0.466
RRIRARPPRLPRPRPRPNNLPRP	-0.561
RRIRARPPRLPRPRPRPNPAPRP	0.796
RRIRARPPRLPRPRPRPNPHPRP	0.0863
RRIRARPPRLPRPRPRPNPLPRP	0.32
RRIRARPPRLPRPRPRPNQKPRP	0.0427
RRIRARPPRLPRPRPRPNQNPRP	0.0844
RRIRARPPRLPRPRPRPNTVPRP	0.0514
RRIRARPPRLPRPRPRPNVKPRP	-0.167
RRIRARPPRLPRPRPRPNWMPRP	0.0981
RRIRARPPRLPRPRPRPNYKPRP	-0.345
RRIRARPPRLPRPRPRPNYSPRP	-0.502
RRIRARPPRLPRPRPRPPADPRP	1.42
RRIRARPPRLPRPRPRPPAYPRP	0.3
RRIRARPPRLPRPRPRPPCDPRP	0.506
RRIRARPPRLPRPRPRPPCQPRP	0.438
RRIRARPPRLPRPRPRPPFTPRP	0.3

Sequence	shrunken log2 fold change
RRIRARPPRLPRPRPRPPHRPRP	0.931
RRIRARPPRLPRPRPRPPHTPRP	0.739
RRIRARPPRLPRPRPRPPILPRP	-0.261
RRIRARPPRLPRPRPRPPIMPRP	0.0549
RRIRARPPRLPRPRPRPPKMPRP	0.298
RRIRARPPRLPRPRPRPPKNPRP	0.562
RRIRARPPRLPRPRPRPPMGPRP	0.358
RRIRARPPRLPRPRPRPPMKPRP	0.303
RRIRARPPRLPRPRPRPPMLPRP	0.805
RRIRARPPRLPRPRPRPPNCPRP	0.354
RRIRARPPRLPRPRPRPPNMPRP	-0.0722
RRIRARPPRLPRPRPRPPNQPRP	0.691
RRIRARPPRLPRPRPRPPPCPRP	0.979
RRIRARPPRLPRPRPRPPQGPRP	0.689
RRIRARPPRLPRPRPRPPRYPRP	0.896
RRIRARPPRLPRPRPRPPSAPRP	0.827
RRIRARPPRLPRPRPRPPSRPRP	0.691
RRIRARPPRLPRPRPRPPTIPRP	0.0349
RRIRARPPRLPRPRPRPPWFPRP	0.36
RRIRARPPRLPRPRPRPPYDPRP	0.0295
RRIRARPPRLPRPRPRPQATPRP	0.389
RRIRARPPRLPRPRPRPQDKPRP	-0.132
RRIRARPPRLPRPRPRPQDMPRP	-0.322
RRIRARPPRLPRPRPRPQDYPRP	-0.159
RRIRARPPRLPRPRPRPQFPPRP	0.0321

Sequence	shrunken log2 fold change
RRIRARPPRLPRPRPRPQFRPRP	-0.123
RRIRARPPRLPRPRPRPQFYPRP	-0.183
RRIRARPPRLPRPRPRPQGNPRP	-0.144
RRIRARPPRLPRPRPRPQIAPRP	0.499
RRIRARPPRLPRPRPRPQIHPRP	-0.0277
RRIRARPPRLPRPRPRPQIRPRP	0.0717
RRIRARPPRLPRPRPRPQLAPRP	0.766
RRIRARPPRLPRPRPRPQMDPRP	0.099
RRIRARPPRLPRPRPRPQNDPRP	5.63e-05
RRIRARPPRLPRPRPRPQNKPRP	-0.232
RRIRARPPRLPRPRPRPQNSPRP	-0.23
RRIRARPPRLPRPRPRPQQDPRP	0.108
RRIRARPPRLPRPRPRPQRHPRP	0.212
RRIRARPPRLPRPRPRPQSPPRP	-0.0671
RRIRARPPRLPRPRPRPQSSPRP	-0.0298
RRIRARPPRLPRPRPRPQSYPRP	-0.118
RRIRARPPRLPRPRPRPQTFPRP	-0.528
RRIRARPPRLPRPRPRPQTTPRP	0.768
RRIRARPPRLPRPRPRPQWTPRP	0.164
RRIRARPPRLPRPRPRPQYCPRP	-0.0903
RRIRARPPRLPRPRPRPRAKPRP	0.868
RRIRARPPRLPRPRPRPRAQPRP	0.465
RRIRARPPRLPRPRPRPRCNPRP	0.197
RRIRARPPRLPRPRPRPRCPPRP	0.248
RRIRARPPRLPRPRPRPRCRPRP	0.427

Sequence	shrunken log2 fold change
RRIRARPPRLPRPRPRPRDKPRP	0.442
RRIRARPPRLPRPRPRPRDTPRP	0.673
RRIRARPPRLPRPRPRPREEPRP	0.579
RRIRARPPRLPRPRPRPREGPRP	1.1
RRIRARPPRLPRPRPRPRFHPRP	-0.0673
RRIRARPPRLPRPRPRPRFVPRP	0.457
RRIRARPPRLPRPRPRPRGGPRP	0.737
RRIRARPPRLPRPRPRPRGPPRP	0.933
RRIRARPPRLPRPRPRPRIDPRP	0.74
RRIRARPPRLPRPRPRPRIVPRP	0.547
RRIRARPPRLPRPRPRPRMEPRP	0.539
RRIRARPPRLPRPRPRPRNHPRP	0.0958
RRIRARPPRLPRPRPRPRNKPRP	0.271
RRIRARPPRLPRPRPRPRNQPRP	-0.012
RRIRARPPRLPRPRPRPRRSPRP	0.743
RRIRARPPRLPRPRPRPRSLPRP	0.0678
RRIRARPPRLPRPRPRPRTLPRP	0.226
RRIRARPPRLPRPRPRPRTSPRP	0.382
RRIRARPPRLPRPRPRPRTYPRP	-0.126
RRIRARPPRLPRPRPRPRVTPRP	0.462
RRIRARPPRLPRPRPRPRWEPRP	0.431
RRIRARPPRLPRPRPRPRWGPRP	0.425
RRIRARPPRLPRPRPRPRWNPRP	0.00795
RRIRARPPRLPRPRPRPRYEPRP	0.0403
RRIRARPPRLPRPRPRPSADPRP	0.804

Sequence	shrunken log2 fold change
RRIRARPPRLPRPRPRPSCCPRP	0.207
RRIRARPPRLPRPRPRPSCLPRP	-0.0189
RRIRARPPRLPRPRPRPSDIPRP	-0.0794
RRIRARPPRLPRPRPRPSDPPRP	-0.0252
RRIRARPPRLPRPRPRPSETPRP	0.176
RRIRARPPRLPRPRPRPSEVPRP	0.258
RRIRARPPRLPRPRPRPSGLPRP	0.0354
RRIRARPPRLPRPRPRPSGPPRP	0.0223
RRIRARPPRLPRPRPRPSGTPRP	-0.0328
RRIRARPPRLPRPRPRPSIDPRP	-0.0466
RRIRARPPRLPRPRPRPSKAPRP	-0.151
RRIRARPPRLPRPRPRPSKMPRP	-0.00925
RRIRARPPRLPRPRPRPSLCPRP	0.276
RRIRARPPRLPRPRPRPSLNPRP	-0.0562
RRIRARPPRLPRPRPRPSMFPRP	0.00699
RRIRARPPRLPRPRPRPSMGPRP	-0.0314
RRIRARPPRLPRPRPRPSNYPRP	-0.901
RRIRARPPRLPRPRPRPSPIPRP	-0.0445
RRIRARPPRLPRPRPRPSQHPRP	-0.117
RRIRARPPRLPRPRPRPSSKPRP	-0.134
RRIRARPPRLPRPRPRPSTQPRP	0.265
RRIRARPPRLPRPRPRPSTVPRP	0.123
RRIRARPPRLPRPRPRPSVAPRP	0.485
RRIRARPPRLPRPRPRPSVKPRP	0.133
RRIRARPPRLPRPRPRPSVWPRP	-0.0231
